# Paper PMC11096006 (Immunity, 2024)
# Target: Linear di-ubiquitin (UniProt P0CG48 1-76; P0CG48 1-76)
# Assay: crystal structure
binder,measurement,value
"QRSSAETSELREALLKIFPDSEQKLKIDQILAAHPYMKDLNALSALVLD (domain or fragment, UniProt Q6A037 845-893, looked up) [N4BP1 CUE-like domain (Q845-D893)]",binding result,binds
